Data reported in US7393670B2, “Tyrosyl-tRNA synthetase variants” (Japan Science and Technology Agency, priority 2001, dated 2008).
Changes are numbered by the printed parent chain.

B1: 37L: E. coli TyrRS variant: position 37 Leucine, position 195 Glutamine (protein, UniProt P0AGJ9 2-424, looked up, variant Y37L)
Tyrosine--tRNA ligase: ASSNLIKQLQERGLVAQVTDEEALAERLAQGPIALLCGFDPTADSLHLGHLVPLLCLKRFQQAGHKPVALVGGATGLIGDPSFKAAERKLNTEETVQEWVDKIRKQVAPFLDFDCGENSAIAANNYDWFGNMNVLTFLRDIGKHFSVNQMINKEAVKQRLNREDQGISFTEFSYNLLQGYDFACLNKQYGVVLQIGGSDQWGNITSGIDLTRRLHQNQVFGLTVPLITKADGTKFGKTEGGAVWLDPKKTSPYKFYQFWINTADADVYRFLKFFTFMSIEEINALEEEDKNSGKAPRAQYVLAEQVTRLVHGEEGLQAAKRITECLFSGSLSALSEADFEQLAQDGVPMVEMEKGADLMQALVDSELQPSRGQARKTIASNAITINGEKQSDPEYFFKEEDRLFGRFTLLRRGKKNYCLICWK
B2: 195S: E. coli TyrRS variant: position 37 Tyrosine, position 195 Serine (protein, UniProt P0AGJ9 2-424, looked up, variant Q195S)
Tyrosine--tRNA ligase: B1 Tyrosine--tRNA ligase with L36Y, Q194S
B3: 195C: E. coli TyrRS variant: position 37 Tyrosine, position 195 Cysteine (protein, UniProt P0AGJ9 2-424, looked up, variant Q195C)
Tyrosine--tRNA ligase: B1 Tyrosine--tRNA ligase with L36Y, Q194C
B4: 195N: E. coli TyrRS variant: position 37 Tyrosine, position 195 Asparagine (protein, UniProt P0AGJ9 2-424, looked up, variant Q195N)
Tyrosine--tRNA ligase: B1 Tyrosine--tRNA ligase with L36Y, Q194N
B5: 195A: E. coli TyrRS variant: position 37 Tyrosine, position 195 Alanine (protein, UniProt P0AGJ9 2-424, looked up, variant Q195A)
Tyrosine--tRNA ligase: B1 Tyrosine--tRNA ligase with L36Y, Q194A
B6: 37I: E. coli TyrRS variant: position 37 Isoleucine, position 195 Glutamine (protein, UniProt P0AGJ9 2-424, looked up, variant Y37I)
Tyrosine--tRNA ligase: B1 Tyrosine--tRNA ligase with L36I
B7: IS: E. coli TyrRS double variant: position 37 Isoleucine, position 195 Serine (protein, UniProt P0AGJ9 2-424, looked up, variant Y37I Q195S)
Tyrosine--tRNA ligase: B1 Tyrosine--tRNA ligase with L36I, Q194S
B8: LS: E. coli TyrRS double variant: position 37 Leucine, position 195 Serine (protein, UniProt P0AGJ9 2-424, looked up, variant Y37L Q195S)
Tyrosine--tRNA ligase: B1 Tyrosine--tRNA ligase with Q194S
B9: IC: E. coli TyrRS double variant: position 37 Isoleucine, position 195 Cysteine (protein, UniProt P0AGJ9 2-424, looked up, variant Y37I Q195C)
Tyrosine--tRNA ligase: B1 Tyrosine--tRNA ligase with L36I, Q194C
B10: AN: E. coli TyrRS double variant: position 37 Alanine, position 195 Asparagine (protein, UniProt P0AGJ9 2-424, looked up, variant Y37A Q195N)
Tyrosine--tRNA ligase: B1 Tyrosine--tRNA ligase with L36A, Q194N

Assay: Aminoacylation reaction, simplified Lloyd's method, inorganic phosphate detected with Biomol green
Format: biochemical
Parameters: key: ***: the aminoacylation reaction was detected by a microplate reader in the reaction at enzyme concentrations of 50 nM; **: 500 nM; *: 5 μM; the activity is high in the order of *** > ** > * > —
Details: Table 2; 3-iodotyrosine 1 mM; 37° C. for 4 min
Procedure: (§1) In the first method, Lloyd's method (Nucleic Acids Research, 23:2886-2892, 1995) where inorganic phosphate produced by pyrophosphatase-drived hydrolysis of pyrophosphate which was one of the reaction products of the aminoacylation reactions was quantified was simplified, and the inorganic phosphate was detected using Biomol green (Funakoshi) to carry out the measurement of the aminoacylation reaction.
(§2) Amino acid concentrations were 200 μM and 1 mM for tyrosine and 3-iodotyrosine, respectively.
(§3) The method where the aminoacylation reaction is measured by quantifying inorganic phosphate produced by pyrophosphatase-drived hydrolysis of pyrophosphate which is one of reaction products of the aminoacylation has been described by Lloyd et al. (Nucleic Acids Research, 23:2886-2892, 1995). In one method of the invention, this method was simplified and the aminoacylation reaction was measured by the detection of inorganic phosphate using Biomol green (Funakoshi). Each enzyme obtained was incubated with 0.05 ml of the buffer B containing 1 mM ATP (Seikagaku Corporation), 30 μM purified crude tyrosyl-tRNA, and 100 μM tyrosine or 0.5 mM 3-iodotyrosine at 37° C. for one hour. To stop the reaction, 0.1 ml of Bio mol green was added. Absorbance of its supernatant was measured at 630 nm.

Row | Molecule | Aminoacylation activity, 3-iodotyrosine
1 | B1 | ***
2 | B2 | *
3 | B3 | *
4 | B4 | *
5 | B5 | *
6 | B6 | ***

Same assay, conditions: Table 3; 3-iodotyrosine 1 mM; 37° C. for 4 min

Row | Molecule | Aminoacylation activity, 3-iodotyrosine
7 | B7 | —
8 | B8 | —
9 | B9 | —
10 | B10 | —

Assay: as above
Format: biochemical
Parameters: key: ***: the aminoacylation reaction was detected by a microplate reader in the reaction at enzyme concentrations of 50 nM; **: 500 nM; *: 5 μM; the activity is high in the order of *** > ** > * > —
Details: Table 2; tyrosine 200 μM; 37° C. for 4 min
Procedure: as §1, §2
as §3, with “Each enzyme obtained was incubated with 0.05 ml of the buffer B containing 1 mM ATP (Seikagaku Corporation), 30 μM purified crude tyrosyl-tRNA, and 100 μM tyrosine or 0.5 mM 3-iodotyrosine at 37° C. for one hour.” left out

Row | Molecule | Aminoacylation activity, Tyrosine
11 | B1 | ***
12 | B2 | ***
13 | B3 | ***
14 | B4 | ***
15 | B5 | ***
16 | B6 | **

Same assay, conditions: Table 3; tyrosine 200 μM; 37° C. for 4 min

Row | Molecule | Aminoacylation activity, Tyrosine
17 | B7 | —
18 | B8 | —
19 | B9 | —
20 | B10 | —
